Experimental data as given in US20220332816A1 (SINGLE CELL TECHNOLOGY, published 2022).

T1: Recombinant human TIGIT (human, UniProt Q495A1 22-141, limits assumed)
T1 construct: also called T cell immunoreceptor with Ig and ITIM domains
T1 sequence: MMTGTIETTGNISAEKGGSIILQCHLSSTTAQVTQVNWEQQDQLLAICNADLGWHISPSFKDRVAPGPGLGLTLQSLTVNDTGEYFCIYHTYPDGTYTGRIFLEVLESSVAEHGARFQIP

T2: TIGIT on the engineered cell lines of the TIGIT/CD155 Blockade Bioassay (J2201, Promega) (UniProt Q495A1 22-244, limits assumed)
T2 sequence (looked up): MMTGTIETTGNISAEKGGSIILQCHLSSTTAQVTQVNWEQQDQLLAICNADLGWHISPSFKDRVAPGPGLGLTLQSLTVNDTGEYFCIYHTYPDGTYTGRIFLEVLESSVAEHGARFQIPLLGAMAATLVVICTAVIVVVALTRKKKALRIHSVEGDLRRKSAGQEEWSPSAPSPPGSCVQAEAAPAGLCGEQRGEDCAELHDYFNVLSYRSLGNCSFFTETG


Legend:
[1] = biological target: TIGIT on the engineered cell lines of the TIGIT/CD155 Blockade Bioassay (J2201, Promega) (UniProt Q495A1); experiment: cell-based or functional assay
Recombinant human TIGIT = biological target: T1, Recombinant human TIGIT; experiment: ELISA, recombinant human TIGIT coated on plate, serially diluted antibody
Experimental: The recombinantly expressed antibodies were used to assess binding activity to TIGIT by conventional ELISA according to the known art. Recombinant human TIGIT was coated onto ELISA plates to detect binding at serially diluted concentrations of the anti-TIGIT antibody preparations (FIG. 1). Anti-TIGIT antibodies' blockade activity was assessed using engineered cell lines, kit reagents (TIGIT/CD155 Blockade Bioassay, J2201, Promega, Madison, Wis.), and a luminometer (Promega, Madison, Wis.) and the results were used to compare against benchmark antibodies with known blockade activity (FIG. 2). Similarly, these antibodies were assessed for their ability to synergize with an anti-PD-1 antibody using a PD-1+TIGIT combination bioassay (Cat. No. J2211 Promega, Madison, Wis.).

[2] = biological target: T2, TIGIT on the engineered cell lines of …; experiment: cell-based or functional assay

Row | Molecule | Blockade EC50 [1] [nM] | EC50 (Recombinant human TIGIT) [nM] | Blockade EC50 [2] [nM]
1 | MK-7684 (antibody) | 24.8 | – | –
2 | SCT-Ga487 (antibody, V domains shown) VH: QVQLQQPGAELVKPGASVKMSCKATGYTFSNYWIEWVKQTPGRGLEWIGEILPGSGSSYYNQKFKGKATLTADKSSSTAYMQLSSLTSEDSAVYYCARQKYGNFYYFDFWGAGTTVTVSA VL: AIQMTQSPSSLSASVGDRVTITCRASQGIGNYLNWYQQKPGKAPKLLIYYTSSLHSGVPSRFSGSGSGTDYTFTISSLQPEDIATYYCHQYSKLPYTFGQGTKVEIK | – | 1.96 | –
3 | SCT-Ga495 (antibody, V domains shown) VH: EVKLVESGGGLVQPGGSLRLSCAASGFAFSSFDMSWVRQAPGKGLEWVAVISSGGSYTFYPDSVKGRFTISRDNSKNTLYLQMNSLRAEDTALYFCTRQDYRYPYIMDYWGQGTLVTVSS VL: AIQMTQSPSSLSASVGDRVTITCQASQNINVWLSWYQQKPGKAPKLLIYKASTLASGVPSRFSGSGSGTDFTLTISSLQPDDFATYYCQQGQSYPWTFGGGTKVEIK | – | 0.69 | –
4 | SCT-Ga433 (antibody, V domains shown, Murine variable domains) VH: DVKLVESGGGLVKPGGSLKLSCSASGFTFSSYTMSWVRQTPEKRLEWVATISSGGSYTYYPDSVKGRFTISRDNAKNTLYLQMSSLKSEDTAMFYCTRWLLSLYAMDYWGQGTSVTVSS VL: DIQMNQSPSSLSASLGDTITITCHASQNINVWLSWYQQKPGNISKLLIYKASNFHTGVPSRFSGSGSGTNFTLTISSLQPEDIATYYCQQGQTYPFTFGGGTKLEIK | – | 1.1 | 25.2
5 | SCT-Ga001 (antibody, V domains shown, Murine variable domains) VH: QVQLQQSGAELVRPGTSVKVSCKASGYAFTNYLIEWVKQRPGQGLEWIGVINPGSGGSKYNEKFKGKTTLTADKSSSTAYMQLSSLTSEDSAVYFCARTGVYGNFLIFDYWGQGTTLTVSS VL: DIVLTQSPSSLSVAAGEKVTLSCKSSQSLLNSGIQKNYLAWYQQKPGQPPKLLIYGASTRESGVPDRFTGSGSGTDFTLTISSVQAEDLAVYYCQNDHRYPFTFGGGTKLEIK | – | 5.03 | 26.6
6 | SCT-Ga461 (antibody, V domains shown) VH: EVQLVESGGGLVQPGGSLRLSCAASGFTFSSYTMSWVRQAPGKGLEWVATISSGGSYTYYPDSVKGRFTISRDNAKNTLYLQMNSLRAEDTAVYYCTRWLLSLYAMDYWGQGTLVTVSS VL: AIQMTQSPSSLSASVGDRVTITCQASQNINVWLSWYQQKPGKAPKLLIYKASTLASGVPSRFSGSGSGTDFTLTISSLQPDDFATYYCQQGQTYPFTFGGGTKVEIK | – | 4.55 | –
7 | SCT-Ga249 (antibody, V domains shown, Murine variable domains) VH: QVQLQQSGGELMKPGASVKISCKATGYTFSNYWIEWVKQRPGHGLEWIGEILPGSGSSYYNEKFKGRATFTADKSSNTAYMQLSSLTSEDSAVYYCARQKYGNFYYFDFWGQGTTLTVSS VL: AIQMTQTTSSLSASLGDRVTISCSASQGIGNYLNWYQQKPDGTVKLLIYYTSSLHSGVPSRFSGSGSGTDYSLTISDLEPEDIATYYCHQYSKLPYTFGGGTKLEIK | – | 1.22 | 28.1

Second part, the molecule after the results:

Row | Blockade EC50 [1] [nM] | EC50 (Recombinant human TIGIT) [nM] | Blockade EC50 [2] [nM] | Molecule
8 | – | 0.96 | 33.4 | SCT-Ga255 (antibody, V domains shown, Murine variable domains) VH: EVKLVESGGGLVKPGGSLKLSCAASGFAFSSFDMSWVRQTPEKRLEWVAVISSGGSYTFYPDSVKGRFTISRDNARNTLYLQMSSLRSEDTALYFCTRQDYRYPYIMDYWGQGTSVTVSS VL: DIQMNQSPSSLSASLGDTITITCHASQNINVWLSWYQQKPGNIPKLLIYKASNLHTGVPSRFSGSGSGAGFTLTISSLQPEDIATYYCQQGQSYPWTFGGGTKLEIK
9 | – | 0.67 | – | SCT-Ga496 (antibody, V domains shown) VH: EVKLVESGGGLVQPGGSLRLSCAASGFAFSSFDMSWVRQAPGKGLEWVAVISSGGSYTFYPDSVKGRFTISRDNSKNTLYLQMNSLRAEDTALYFCTRQDYRYPYIMDYWGQGTLVTVSS VL: DIQMTQSPSSLSASVGDRVTITCHASQNINVWLSWYQQKPGKAPKLLIYKASTLASGVPSRFSGSGSGTDFTLTISSLQPDDFATYYCQQGQSYPWTFGGGTKVEIK
10 | – | 1.08 | 42.2 | SCT-Ga333 (antibody, V domains shown, Murine variable domains) VH: QVQLQQSGAELVRPGTSVKVSCKASGYAFTNYLIEWVKQRPGQGLEWIGVINPGSGGNNYNEKFKGKATLTADKSSSTAYMQLSSLTSDDSAVYFCARRGDKYGSAWFAYWGQGTLVTVSA VL: DIVMTQSHKFMSTSVGDRVSITCKASQDVSTAVAWYQQKPGQSPKLLIYSASYRYTGVPDRFTGSGSGTDFTFTISSVQAEDLAVYYCQQHYSSPRTFGGGTKLEIK
11 | – | 0.82 | – | SCT-Ga498 (antibody, V domains shown) VH: QVQLQQSGAEVKKPGASVKVSCKASGYAFTNYLIEWVKQAPGQGLEWIGVINPGSGGNNYNEKFKGRATITADKSTSTAYMELSSLRSEDTAVYFCARRGDKYGSAWFAYWGQGTTVTVSA VL: DIVMTQSQRFMSTTVGDRVSITCKASQDVSTAVAWYQQKPGQSPKLLIYSASYRYTGVPDRFTGSGSGTDFTLTISNMQSEDLAVYYCQQHYSSPRTFGGGTKLEIK
12 | – | 0.79 | – | SCT-Ga485 (antibody, V domains shown) VH: QVQLVQSGAEVKKPGASVKVSCKASGYAFTNYLIEWVKQAPGQGLEWIGVINPGSGGSKYNEKFKGRATITADKSTSTAYMELSSLRSEDTAVYFCARTGVYGNFLIFDYWGQGTTVTVSS VL: DIVMTQSPDSLAVSLGERATINCKSSQSLLNSGIQKNYLAWYQQKPGQPPKLLIYGASTRESGVPDRFSGSGSGTDFTLTISSLQAEDVAVYYCQNDHRYPFTFGGGTKLEIK
